# B1: RAD51 (parent)
# chain: APKKELINIKGISEAKADKILAEA
# B2: TMEM175 (parent)
# chain: QTSAFARQPRDELERVRVSCTIIF
# Variants of: B1
# Assay: protein stability index of a GFP-peptide fusion (GPS, HEK-293T) (PSI 1-6); higher = more stable
# Settings: c terminus: a fixed tail appended
# 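Note: lentivirally expressed fusions sorted by FACS into six bins by GFP to DsRed ratio, PSI derived from sequencing read proportions per bin multiplied by bin number.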
row,Variant,protein stability index
1,S13F,3.73
2,S13W,4.12
3,S13E,5.23
4,S13T,5.02
5,S13D,5.12
6,S13V,4.02
7,S13A,4.97
8,S13R,4.36
9,S13C,4.43
10,S13P,4.88
11,S13M,4.56
12,S13K,4.7
13,S13H,5.38
14,S13Q,4.83
15,S13N,4.65
16,S13I,3.86
17,S13L,4.21
18,S13Y,3.71
19,A1R,4.63
20,A1C,4.73
21,A1V,4.08
22,A1E,5.23
23,A1M,4.06
24,A1G,4.71
25,A1S,4.52

row,Variant,protein stability index
1,A1L,4.72
2,A1I,4.39
3,A1T,4.41
4,A1K,4.84
5,A1H,4.37
6,A1D,4.31
7,A1N,4.71
8,A1Y,3.83
9,A1P,4.67
10,A1Q,4.55
11,A1F,3.87
12,A1W,3.75
13,L6M,4.92
14,L6E,5.28
15,L6N,4.94
16,L6Q,4.79
17,L6Y,4.46
18,L6T,5.06
19,L6V,5.2
20,L6W,4.12
21,L6G,4.73
22,L6P,5.31
23,L6S,4.79
24,L6R,4.61
25,L6F,4.4

row,Variant,protein stability index
1,L6D,5.45
2,L6C,4.97
3,L6I,4.4
4,L6A,5.16
5,L6H,5.13
6,L6K,5
7,K3M,3.95
8,K3R,4.58
9,K3S,4.55
10,K3A,4.92
11,K3D,4.71
12,K3H,4.87
13,K3V,5.06
14,K3T,4.97
15,K3Q,4.81
16,K3F,3.48
17,K3W,3.81
18,K3E,4.94
19,K3C,4.28
20,K3N,4.58
21,K3G,4.65
22,K3I,4.77
23,K3Y,3.85
24,K3L,3.3
25,K3P,4.83

row,Variant,protein stability index
1,E14M,4.23
2,E14V,4.81
3,E14P,4.96
4,E14K,4.4
5,E14F,3.48
6,E14G,4.8
7,E14Q,4.76
8,E14N,4.84
9,E14W,3.89
10,E14H,4.58
11,E14C,3.66
12,E14A,4.4
13,E14T,4.43
14,E14I,3.68
15,E14D,4.99
16,E14L,3.83
17,E14S,4.23
18,E14R,4.05
19,E14Y,3.65
20,I9C,5.4
21,I9S,4.89
22,I9F,4.51
23,I9V,5.1
24,I9R,5.12
25,I9Y,4.91

row,Variant,protein stability index
1,I9Q,4.8
2,I9M,5.06
3,I9K,5.22
4,I9E,5.68
5,I9W,4.65
6,I9N,5.26
7,I9P,5.4
8,I9D,5.19
9,I9H,4.66
10,I9T,5.24
11,I9G,5.11
12,I9L,4.62
13,K10S,5.35
14,K10P,4.34
15,K10C,4.19
16,K10A,4.56
17,K10V,4.38
18,K10R,4.2
19,K10N,4.42
20,K10Q,4.46
21,K10D,5.12
22,K10W,3.99
23,K10G,5.08
24,K10E,5.1
25,K10T,4.68

row,Variant,protein stability index
1,K10Y,3.8
2,K10F,3.82
3,K10L,4.29
4,K10H,4.59
5,K10M,4.02
6,K10I,3.64
7,E5H,4.48
8,E5A,4.12
9,E5W,3.01
10,E5K,4
11,E5R,4.16
12,E5I,3.4
13,E5C,3.56
14,E5G,4.63
15,E5D,4.6
16,E5Q,3.96
17,E5S,4.34
18,E5F,3.04
19,E5M,3.7
20,E5T,3.85
21,E5Y,3.1
22,E5N,4.22
23,E5L,3.65
24,E5V,3.65
25,E5P,4.54

row,Variant,protein stability index
1,N8A,4.7
2,N8Y,4.39
3,N8K,4.13
4,N8W,3.75
5,N8R,4.79
6,N8L,3.5
7,N8S,4.32
8,N8D,4.88
9,N8M,4.17
10,N8V,4.07
11,N8P,4.88
12,N8E,5.07
13,N8F,3.76
14,N8T,4.01
15,N8Q,4.67
16,N8I,3.43
17,N8H,4.69
18,A15N,4.36
19,A15P,4.41
20,A15R,4.4
21,A15L,4.27
22,A15E,5.25
23,A15T,5.07
24,A15V,4.95
25,A15K,4.95

row,Variant,protein stability index
1,A15W,3.88
2,A15D,4.64
3,A15H,4.18
4,A15F,4.45
5,A15Q,4.58
6,A15I,4.77
7,A15S,4.78
8,A15C,4.63
9,A15G,4.81
10,A15M,4.41
11,A15Y,3.58
12,K4E,5.22
13,K4I,4.25
14,K4P,5.05
15,K4W,3.98
16,K4M,4.13
17,K4G,4.57
18,K4Y,4.52
19,K4H,4.17
20,K4N,4.95
21,K4V,4.82
22,K4A,4.44
23,K4Q,4.6
24,K4L,4.19
25,K4D,5.31

row,Variant,protein stability index
1,K4C,4.68
2,K4F,4.5
3,K4S,4.96
4,K4T,4.69
5,K4R,4.39
6,I12N,5.06
7,I12D,5.91
8,I12V,4.7
9,I12K,5.36
10,I12F,4.33
11,I12C,4.96
12,I12L,4.64
13,I12E,4.54
14,I12H,5.44
15,I12R,5.14
16,I12Y,4.13
17,I12A,5.28
18,I12T,5.16
19,I12M,4.98
20,I12G,4.69
21,I12S,5.27
22,I12W,4.36
23,I12Q,5.33
24,I12P,5.15
25,I7E,5.17

row,Variant,protein stability index
1,I7H,5.01
2,I7Q,4.83
3,I7T,5.04
4,I7D,5.31
5,I7K,4.78
6,I7G,4.8
7,I7C,4.21
8,I7S,5.52
9,I7V,5.39
10,I7F,3.8
11,I7A,5.13
12,I7N,4.7
13,I7W,4.49
14,I7Y,4.73
15,I7P,5.04
16,I7R,4.59
17,I7M,4.99
18,I7L,5.31
19,P2D,5.18
20,P2W,3.79
21,P2M,4.53
22,P2A,4.93
23,P2V,4.44
24,P2E,4.7
25,P2I,4.01

row,Variant,protein stability index
1,P2T,4.6
2,P2Y,4.18
3,P2F,3.62
4,P2R,4.02
5,P2H,4.85
6,P2K,4.34
7,P2Q,4.88
8,P2C,4.5
9,P2N,4.39
10,P2G,4.68
11,P2S,4.36
12,P2L,3.97
13,G11H,4.8
14,G11P,4.93
15,G11D,4.9
16,G11Y,4.18
17,G11K,4.68
18,G11M,3.98
19,G11V,4.37
20,G11F,3.69
21,G11S,5.46
22,G11R,4.37
23,G11T,4.59
24,G11N,4.62
25,G11I,3.39

row,Variant,protein stability index
1,G11E,4.74
2,G11A,5.12
3,G11W,3.4
4,G11C,4.17
5,G11L,3.69
6,G11Q,4.72
7,K16F,3.67
8,K16P,4.84
9,K16I,3.8
10,K16H,4.78
11,K16C,4.63
12,K16N,5.08
13,K16Q,4.65
14,K16D,5
15,K16A,4.47
16,K16G,5.01
17,K16E,5.08
18,K16L,3.28
19,K16M,3.59

# Variants of: B2
# Assay: as above
# Settings: c terminus: a fixed tail appended
row,Variant,protein stability index
1,F24S,2.46
2,F24Y,2.08
3,F24A,2.02
4,F24G,2.12
5,F24H,2.01
6,F24C,2.66
7,F24W,1.21
8,F24T,1.64
9,F24D,3.47
10,F24N,2.48
11,F24M,2.35
12,F24K,3.15
13,F24Q,2.56
14,F24R,2.37
15,F24P,2.78
16,F24L,2.47
17,F24E,3.76
18,I22W,2.02
19,I22V,2.17
20,I22R,2.42

row,Variant,protein stability index
1,I22T,2.71
2,I22S,2.28
3,I22Y,1.69
4,I23S,2.69
5,I23D,2.81
6,I23G,2.83
7,I23H,2.56
8,I23N,2.37
9,I23Q,1.79
10,I23Y,2.6
11,I23E,1.57
12,I23A,2.06
13,I23M,2.91
14,I23L,1.82
15,I23V,3.26
16,I23F,3.33
17,I23C,1.67
18,I23P,3.13
19,I23K,2.07
20,I23R,2.21
